{"source": "patent US20230357367A1", "about": "(GENERATE BIOMEDICINES, published 2023)", "key": {"[1]": {"target": "SARS-CoV-1 spike trimer (recombinant) (SARS-CoV-1, UniProt P59594 14-1195)"}, "[2]": {"target": "T1, SARS-CoV-1 Spike on pseudovirus (SARS-CoV-1, UniProt P59594 14-1255)", "test": "cell-based or functional assay"}, "[3]": {"target": "T2, WIV1 Spike on pseudovirus (WIV1 (bat SARS-like coronavirus))", "test": "cell-based or functional assay"}, "[4]": {"target": "T1, SARS-CoV-1 Spike on pseudovirus", "test": "cell-based or functional assay", "remark": "listed apart in the source"}, "[5]": {"target": "T2, WIV1 Spike on pseudovirus", "test": "cell-based or functional assay", "remark": "listed apart in the source"}, "[6]": {"target": "T1, SARS-CoV-1 Spike on pseudovirus", "test": "cell-based or functional assay", "remark": "listed apart in the source"}, "[7]": {"target": "T2, WIV1 Spike on pseudovirus", "test": "cell-based or functional assay", "remark": "listed apart in the source"}}, "note": "Where two headings read alike, the source gives them in different places.", "data": [{"binder": "AB-1 (antibody, V domains shown) VH: EVQLVESGAEVKKPGESLKISCKGSGYTFTRYWIGWVRQMPGKGLEWMGIIYPGDSDVRYSPSFQGHVTISADKSISTAYLQWNSLKASDTAMYYCARLPQYCSKGVCYRWFDPWGQGTLVTVSS VL: EIVLTQSPSSVSASVGDRVTITCRASQGISSWLAWYQQKPGKAPKLLIYAASSLQSGVPSRFSGSGSGTDFTLTISSLQPEDFATYYCQQGHSFPYTFGQGTNLEIK", "values": [{"measurement": "EC50", "setting": "[1]", "value": 0.065, "unit": "µg/mL"}, {"measurement": "IC50, pseudovirus neutralization", "setting": "[2]", "value": 0.04, "unit": "µg/mL"}, {"measurement": "IC50, pseudovirus neutralization", "setting": "[3]", "value": 0.069, "unit": "µg/mL"}, {"measurement": "IC50, pseudovirus neutralization", "setting": "[4]", "value": 0.009, "unit": "µg/mL"}, {"measurement": "IC50, pseudovirus neutralization", "setting": "[5]", "value": 0.0139, "unit": "µg/mL"}, {"measurement": "% neutralization at 4.5 µg/ml, pseudovirus", "setting": "[6]", "value": 99, "unit": "%"}, {"measurement": "% neutralization at 4.5 µg/ml, pseudovirus", "setting": "[7]", "value": 101, "unit": "%"}]}]}
